Reference: IntAct's records for PubMed 31515488

B1: THAP domain-containing protein 7 (Homo sapiens), Q9BT49 (parent)
chain: MPRHCSAAGCCTRDTRETRNRGISFHRLPKKDNPRRGLWLANCQRLDPSGQGLWDPASEYIYFCSKHFEEDCFELVGISGYHRLKEGAVPTIFESFSKLRRTTKTKGHSYPPGPAEVSRLRRCRKRCSEGRGPTTPFSPPPPADVTCFPVEEASAPATLPASPAGRLEPGLSSPFSDLLGPLGAQADEAGCSAQPSPERQPSPLEPRPVSPSAYMLRLPPPAGAYIQNEHSYQVGSALLWKRRAEAALDALDKAQRQLQACKRREQRLRLRLTKLQQERAREKRAQADARQTLKEHVQDFAMQLSSSMA
B2: Nuclear autoantigen Sp-100 (Homo sapiens), P23497 (parent)
chain: MAGGGGDLSTRRLNECISPVANEMNHLPAHSHDLQRMFTEDQGVDDRLLYDIVFKHFKRNKVEISNAIKKTFPFLEGLRDRDLITNKMFEDSQDSCRNLVPVQRVVYNVLSELEKTFNLPVLEALFSDVNMQEYPDLIHIYKGFENVIHDKLPLQESEEEEREERSGLQLSLEQGTGENSFRSLTWPPSGSPSHAGTTPPENGLSEHPCETEQINAKRKDTTSDKDDSLGSQQTNEQCAQKAEPTESCEQIAVQVNNGDAGREMPCPLPCDEESPEAELHNHGIQINSCSVRLVDIKKEKPFSNSKVECQAQARTHHNQASDIIVISSEDSEGSTDVDEPLEVFISAPRSEPVINNDNPLESNDEKEGQEATCSRPQIVPEPMDFRKLSTFRESFKKRVIGQDHDFSESSEEEAPAEASSGALRSKHGEKAPMTSRSTSTWRIPSRKRRFSSSDFSDLSNGEELQETCSSSLRRGSGSQPQEPENKKCSCVMCFPKGVPRSQEARTESSQASDMMDTMDVENNSTLEKHSGKRRKKRRHRSKVNGLQRGRKKDRPRKHLTLNNKVQKKRWQQRGRKANTRPLKRRRKRGPRIPKDENINFKQSELPVTCGEVKGTLYKERFKQGTSKKCIQSEDKKWFTPREFEIEGDRGASKNWKLSIRCGGYTLKVLMENKFLPEPPSTRKKRILESHNNTLVDPCEEHKKKNPDASVKFSEFLKKCSETWKTIFAKEKGKFEDMAKADKAHYEREMKTYIPPKGEKKKKFKDPNAPKRPPLAFFLFCSEYRPKIKGEHPGLSIDDVVKKLAGMWNNTAAADKQFYEKKAAKLKEKYKKDIAAYRAKGKPNSAKKRVVKAEKSKKKKEEEEDEEDEQEEENEEDDDK
partner: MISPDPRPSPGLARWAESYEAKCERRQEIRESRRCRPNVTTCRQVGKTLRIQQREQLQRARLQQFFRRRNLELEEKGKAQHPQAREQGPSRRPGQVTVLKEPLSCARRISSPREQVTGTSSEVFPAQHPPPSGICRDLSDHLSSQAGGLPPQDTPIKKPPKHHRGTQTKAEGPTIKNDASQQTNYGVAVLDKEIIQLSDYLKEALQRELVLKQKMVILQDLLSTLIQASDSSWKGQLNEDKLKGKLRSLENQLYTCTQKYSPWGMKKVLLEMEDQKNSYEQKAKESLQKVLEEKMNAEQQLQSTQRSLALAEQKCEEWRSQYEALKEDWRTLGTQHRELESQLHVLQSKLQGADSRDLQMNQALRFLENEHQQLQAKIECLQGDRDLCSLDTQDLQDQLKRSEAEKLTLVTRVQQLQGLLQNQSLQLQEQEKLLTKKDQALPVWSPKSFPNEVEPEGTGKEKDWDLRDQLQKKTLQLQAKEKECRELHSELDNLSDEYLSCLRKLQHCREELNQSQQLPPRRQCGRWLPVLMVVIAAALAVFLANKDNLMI
B3: Tyrosine aminotransferase (Homo sapiens), P17735 (parent)
chain: MDPYMIQMSSKGNLPSILDVHVNVGGRSSVPGKMKGRKARWSVRPSDMAKKTFNPIRAIVDNMKVKPNPNKTMISLSIGDPTVFGNLPTDPEVTQAMKDALDSGKYNGYAPSIGFLSSREEIASYYHCPEAPLEAKDVILTSGCSQAIDLCLAVLANPGQNILVPRPGFSLYKTLAESMGIEVKLYNLLPEKSWEIDLKQLEYLIDEKTACLIVNNPSNPCGSVFSKRHLQKILAVAARQCVPILADEIYGDMVFSDCKYEPLATLSTDVPILSCGGLAKRWLVPGWRLGWILIHDRRDIFGNEIRDGLVKLSQRILGPCTIVQGALKSILCRTPGEFYHNTLSFLKSNADLCYGALAAIPGLRPVRPSGAMYLMVGIEMEHFPEFENDVEFTERLVAEQSVHCLPATCFEYPNFIRVVITVPEVMMLEACSRIQEFCEQHYHCAEGSQEECDK
B4: Grainyhead-like protein 2 homolog (Homo sapiens), Q6ISB3 (parent)
chain: MSQESDNNKRLVALVPMPSDPPFNTRRAYTSEDEAWKSYLENPLTAATKAMMSINGDEDSAAALGLLYDYYKVPRDKRLLSVSKASDSQEDQEKRNCLGTSEAQSNLSGGENRVQVLKTVPVNLSLNQDHLENSKREQYSISFPESSAIIPVSGITVVKAEDFTPVFMAPPVHYPRGDGEEQRVVIFEQTQYDVPSLATHSAYLKDDQRSTPDSTYSESFKDAATEKFRSASVGAEEYMYDQTSSGTFQYTLEATKSLRQKQGEGPMTYLNKGQFYAITLSETGDNKCFRHPISKVRSVVMVVFSEDKNRDEQLKYWKYWHSRQHTAKQRVLDIADYKESFNTIGNIEEIAYNAVSFTWDVNEEAKIFITVNCLSTDFSSQKGVKGLPLMIQIDTYSYNNRSNKPIHRAYCQIKVFCDKGAERKIRDEERKQNRKKGKGQASQTQCNSSSDGKLAAIPLQKKSDITYFKTMPDLHSQPVLFIPDVHFANLQRTGQVYYNTDDEREGGSVLVKRMFRPMEEEFGPVPSKQMKEEGTKRVLLYVRKETDDVFDALMLKSPTVKGLMEAISEKYGLPVEKIAKLYKKSKKGILVNMDDNIIEHYSNEDTFILNMESMVEGFKVTLMEI
partner: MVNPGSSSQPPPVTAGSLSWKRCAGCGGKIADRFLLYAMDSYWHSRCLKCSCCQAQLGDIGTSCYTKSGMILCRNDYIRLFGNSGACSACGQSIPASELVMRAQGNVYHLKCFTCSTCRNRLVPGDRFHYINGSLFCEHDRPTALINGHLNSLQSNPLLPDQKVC
B5: Keratin-associated protein 5-9 (Homo sapiens), P26371 (parent)
chain: MGCCGCSGGCGSSCGGCDSSCGSCGSGCRGCGPSCCAPVYCCKPVCCCVPACSCSSCGKRGCGSCGGSKGGCGSCGCSQCSCCKPCCCSSGCGSSCCQCSCCKPYCSQCSCCKPCCSSSGRGSSCCQSSCCKPCCSSSGCGSSCCQSSCCKPCCSQSRCCVPVCYQCKI
partner: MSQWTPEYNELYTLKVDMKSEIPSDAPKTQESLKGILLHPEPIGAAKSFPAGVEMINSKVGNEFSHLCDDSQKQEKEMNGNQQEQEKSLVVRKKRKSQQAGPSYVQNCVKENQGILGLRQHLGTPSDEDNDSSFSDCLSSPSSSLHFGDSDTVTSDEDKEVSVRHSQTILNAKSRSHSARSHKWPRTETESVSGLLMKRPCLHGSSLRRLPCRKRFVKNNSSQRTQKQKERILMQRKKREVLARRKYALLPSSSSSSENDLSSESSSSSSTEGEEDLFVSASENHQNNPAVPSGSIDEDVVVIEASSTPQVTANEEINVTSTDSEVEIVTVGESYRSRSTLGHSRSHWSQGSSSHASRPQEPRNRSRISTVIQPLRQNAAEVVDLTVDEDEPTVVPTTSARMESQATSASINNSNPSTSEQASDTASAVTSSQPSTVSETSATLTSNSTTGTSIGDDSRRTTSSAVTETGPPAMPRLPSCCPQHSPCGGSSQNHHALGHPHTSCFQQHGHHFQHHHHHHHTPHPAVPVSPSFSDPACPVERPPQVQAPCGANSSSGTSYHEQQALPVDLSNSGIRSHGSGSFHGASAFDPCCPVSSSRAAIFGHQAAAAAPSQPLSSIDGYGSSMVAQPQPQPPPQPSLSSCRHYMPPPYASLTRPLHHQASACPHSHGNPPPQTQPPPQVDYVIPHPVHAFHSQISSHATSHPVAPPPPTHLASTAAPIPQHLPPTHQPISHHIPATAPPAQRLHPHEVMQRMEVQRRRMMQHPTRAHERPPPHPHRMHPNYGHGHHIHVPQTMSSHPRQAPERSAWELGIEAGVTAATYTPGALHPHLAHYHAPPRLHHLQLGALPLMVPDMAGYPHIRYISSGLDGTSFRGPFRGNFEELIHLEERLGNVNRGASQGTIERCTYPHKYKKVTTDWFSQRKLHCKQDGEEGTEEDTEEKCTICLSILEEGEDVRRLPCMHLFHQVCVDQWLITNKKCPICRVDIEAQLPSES
B6: Histone-lysine N-methyltransferase SMYD1 (Homo sapiens), Q8NB12 (parent)
chain: MTIGRMENVEVFTAEGKGRGLKATKEFWAADIIFAERAYSAVVFDSLVNFVCHTCFKRQEKLHRCGQCKFAHYCDRTCQKDAWLNHKNECSAIKRYGKVPNENIRLAARIMWRVEREGTGLTEGCLVSVDDLQNHVEHFGEEEQKDLRVDVDTFLQYWPPQSQQFSMQYISHIFGVINCNGFTLSDQRGLQAVGVGIFPNLGLVNHDCWPNCTVIFNNGNHEAVKSMFHTQMRIELRALGKISEGEELTVSYIDFLNVSEERKRQLKKQYYFDCTCEHCQKKLKDDLFLGVKDNPKPSQEVVKEMIQFSKDTLEKIDKARSEGLYHEVVKLCRECLEKQEPVFADTNIYMLRMLSIVSEVLSYLQAFEEASFYARRMVDGYMKLYHPNNAQLGMAVMRAGLTNWHAGNIEVGHGMICKAYAILLVTHGPSHPITKDLEAMRVQTEMELRMFRQNEFMYYKMREAALNNQPMQVMAEPSNEPSPALFHKKQ
partner: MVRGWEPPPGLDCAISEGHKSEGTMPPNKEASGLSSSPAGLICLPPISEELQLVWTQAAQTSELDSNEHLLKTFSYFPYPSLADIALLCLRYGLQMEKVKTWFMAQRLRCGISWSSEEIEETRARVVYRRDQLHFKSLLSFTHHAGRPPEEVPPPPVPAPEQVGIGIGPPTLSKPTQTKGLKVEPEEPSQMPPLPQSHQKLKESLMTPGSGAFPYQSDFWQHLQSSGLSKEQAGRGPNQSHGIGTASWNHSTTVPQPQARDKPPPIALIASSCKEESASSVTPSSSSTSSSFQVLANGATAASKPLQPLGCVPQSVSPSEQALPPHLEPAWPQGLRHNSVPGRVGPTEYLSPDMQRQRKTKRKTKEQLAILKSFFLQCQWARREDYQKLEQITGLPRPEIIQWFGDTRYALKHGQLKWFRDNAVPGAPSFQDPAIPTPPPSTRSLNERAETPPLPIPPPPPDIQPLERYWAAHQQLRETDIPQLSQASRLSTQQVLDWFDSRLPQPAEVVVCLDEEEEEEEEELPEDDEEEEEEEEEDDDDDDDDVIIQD
B7: Thioredoxin-like protein 4B (Homo sapiens), Q9NX01 (parent)
chain: MSFLLPKLTSKKEVDQAIKSTAEKVLVLRFGRDEDPVCLQLDDILSKTSSDLSKMAAIYLVDVDQTAVYTQYFDISYIPSTVFFFNGQHMKVDYGSPDHTKFVGSFKTKQDFIDLIEVIYRGAMRGKLIVQSPIDPKNIPKYDLLYQDI
B8: Dynein axonemal assembly factor 19 (Homo sapiens), Q8IW40 (parent)
chain: MERNDIINFKALEKELQAALTADEKYKRENAAKLRAVEQRVASYEEFRGIVLASHLKPLERKDKMGGKRTVPWNCHTIQGRTFQDVATEISPEKAPLQPETSADFYRDWRRHLPSGPERYQALLQLGGPRLGCLFQTDVGFGLLGELLVALADHVGPADRAAVLGILCSLASTGRFTLNLSLLSRAERESCKGLFQKLQAMGNPRSVKEGLSWEEQGLEEQSGGLQEEERLLQELLELYQVD

Variants of: B1
Conditions: with mdfi_human MDFI

effect of a mutation on the interaction	Variant
disrupting interaction strength	E168D

Variants of: B1
Conditions: with traf2_human TRAF2, Q12933
Sequence of traf2_human TRAF2, Q12933 (Q12933 whole entry): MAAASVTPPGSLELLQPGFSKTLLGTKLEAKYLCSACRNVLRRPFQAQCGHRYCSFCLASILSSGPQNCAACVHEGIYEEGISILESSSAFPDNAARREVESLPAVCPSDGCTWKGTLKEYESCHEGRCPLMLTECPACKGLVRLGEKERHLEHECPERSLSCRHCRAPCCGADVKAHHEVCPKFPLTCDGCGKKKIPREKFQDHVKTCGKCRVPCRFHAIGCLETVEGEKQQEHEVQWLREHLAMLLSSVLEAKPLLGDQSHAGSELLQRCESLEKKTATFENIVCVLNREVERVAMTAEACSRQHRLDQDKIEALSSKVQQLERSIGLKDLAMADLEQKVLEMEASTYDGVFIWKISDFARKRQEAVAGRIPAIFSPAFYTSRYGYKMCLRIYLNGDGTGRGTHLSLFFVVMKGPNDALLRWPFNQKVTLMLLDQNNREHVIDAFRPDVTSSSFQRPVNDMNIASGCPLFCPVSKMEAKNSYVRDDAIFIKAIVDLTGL

effect of a mutation on the interaction	Variant
with no effect	E168D

Variants of: B1
Conditions: with set_human SET

effect of a mutation on the interaction	Variant
with no effect	E168D

Variants of: B2
Conditions: with TRAF3IP3, Q9Y228

effect of a mutation on the interaction	Variant
with no effect	M433V

Variants of: B3
Conditions: with ube3a_human UBE3A

effect of a mutation on the interaction	Variant
disrupting interaction strength	R119W

Variants of: B4
Conditions: with lmo4_human LMO4, P61968

effect of a mutation on the interaction	Variant
with no effect	K9R

Variants of: B5
Conditions: with rn111_human RNF111, Q6ZNA4

effect of a mutation on the interaction	Variant
with no effect	Y40C

Variants of: B6
Conditions: with homez_human HOMEZ

effect of a mutation on the interaction	Variant
with no effect	R441W

Variants of: B7
Conditions: with itf2_human TCF4, P15884
Sequence of itf2_human TCF4, P15884 (P15884 whole entry): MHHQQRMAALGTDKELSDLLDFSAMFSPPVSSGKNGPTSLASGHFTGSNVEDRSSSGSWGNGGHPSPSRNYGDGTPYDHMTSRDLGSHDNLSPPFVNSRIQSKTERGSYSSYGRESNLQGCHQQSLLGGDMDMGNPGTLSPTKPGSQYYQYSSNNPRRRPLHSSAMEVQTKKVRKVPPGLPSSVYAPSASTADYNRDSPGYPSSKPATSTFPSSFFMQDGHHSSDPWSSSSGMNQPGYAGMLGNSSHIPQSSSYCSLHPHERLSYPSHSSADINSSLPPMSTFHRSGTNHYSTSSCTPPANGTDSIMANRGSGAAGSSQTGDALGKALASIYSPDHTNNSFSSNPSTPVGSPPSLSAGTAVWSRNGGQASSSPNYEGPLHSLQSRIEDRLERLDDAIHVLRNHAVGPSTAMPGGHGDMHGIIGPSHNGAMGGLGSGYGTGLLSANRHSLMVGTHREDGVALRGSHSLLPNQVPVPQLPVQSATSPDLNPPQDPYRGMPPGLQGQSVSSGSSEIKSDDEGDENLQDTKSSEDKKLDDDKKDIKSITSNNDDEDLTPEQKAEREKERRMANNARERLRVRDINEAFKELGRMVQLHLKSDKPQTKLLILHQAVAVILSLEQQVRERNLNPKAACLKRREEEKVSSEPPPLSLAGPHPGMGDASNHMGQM

effect of a mutation on the interaction	Variant
with no effect	I119M

Variants of: B8
Conditions: with hgs_human HGS

effect of a mutation on the interaction	Variant
with no effect	K27R

Variants of: B8
Conditions: with vac14_human VAC14, Q08AM6
Sequence of vac14_human VAC14, Q08AM6 (Q08AM6 whole entry): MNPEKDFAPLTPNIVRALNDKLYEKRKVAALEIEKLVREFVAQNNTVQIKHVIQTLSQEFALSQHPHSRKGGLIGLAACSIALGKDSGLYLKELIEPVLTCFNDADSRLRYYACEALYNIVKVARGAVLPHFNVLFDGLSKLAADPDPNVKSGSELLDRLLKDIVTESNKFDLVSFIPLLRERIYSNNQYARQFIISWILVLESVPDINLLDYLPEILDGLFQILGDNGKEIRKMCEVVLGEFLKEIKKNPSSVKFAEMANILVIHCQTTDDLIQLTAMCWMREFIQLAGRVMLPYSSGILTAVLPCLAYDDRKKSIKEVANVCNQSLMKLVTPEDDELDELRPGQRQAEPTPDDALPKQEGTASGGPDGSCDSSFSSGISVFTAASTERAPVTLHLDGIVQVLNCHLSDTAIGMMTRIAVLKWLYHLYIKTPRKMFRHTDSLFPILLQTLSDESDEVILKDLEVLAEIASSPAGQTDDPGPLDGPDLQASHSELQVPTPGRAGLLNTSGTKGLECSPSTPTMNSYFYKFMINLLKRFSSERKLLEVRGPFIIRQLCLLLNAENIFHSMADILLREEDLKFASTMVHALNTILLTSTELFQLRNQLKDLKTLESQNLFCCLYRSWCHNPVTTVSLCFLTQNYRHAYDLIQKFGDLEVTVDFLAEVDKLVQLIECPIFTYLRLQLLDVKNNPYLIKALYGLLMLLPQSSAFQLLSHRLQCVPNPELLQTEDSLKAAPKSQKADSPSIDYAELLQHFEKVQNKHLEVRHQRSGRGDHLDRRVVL

effect of a mutation on the interaction	Variant
with no effect	H154P
with no effect	H112N
